Source: PMC10377191, “The Crystal Structure of the Hsp90-LA1011 Complex and the Mechanism by Which LA1011 May Improve the Prognosis of Alzheimer’s Disease” (Biomolecules, 2023)

Molecular target: T1, yeast Hsp90 (yeast, UniProt P02829 1-709)
T1 construct: yeast Hsp90 as used in the ITC experiments; probably the full-length protein was used (surmise)
Experiment: ITC; 400 μM FKBP51 or FKBP51-Δ7He injected into 30 μM Hsp90; 20 mM Tris pH 7.5, 5 mM NaCl, 30 °C
Details: both partners purified

T1 sequence (P02829 whole entry): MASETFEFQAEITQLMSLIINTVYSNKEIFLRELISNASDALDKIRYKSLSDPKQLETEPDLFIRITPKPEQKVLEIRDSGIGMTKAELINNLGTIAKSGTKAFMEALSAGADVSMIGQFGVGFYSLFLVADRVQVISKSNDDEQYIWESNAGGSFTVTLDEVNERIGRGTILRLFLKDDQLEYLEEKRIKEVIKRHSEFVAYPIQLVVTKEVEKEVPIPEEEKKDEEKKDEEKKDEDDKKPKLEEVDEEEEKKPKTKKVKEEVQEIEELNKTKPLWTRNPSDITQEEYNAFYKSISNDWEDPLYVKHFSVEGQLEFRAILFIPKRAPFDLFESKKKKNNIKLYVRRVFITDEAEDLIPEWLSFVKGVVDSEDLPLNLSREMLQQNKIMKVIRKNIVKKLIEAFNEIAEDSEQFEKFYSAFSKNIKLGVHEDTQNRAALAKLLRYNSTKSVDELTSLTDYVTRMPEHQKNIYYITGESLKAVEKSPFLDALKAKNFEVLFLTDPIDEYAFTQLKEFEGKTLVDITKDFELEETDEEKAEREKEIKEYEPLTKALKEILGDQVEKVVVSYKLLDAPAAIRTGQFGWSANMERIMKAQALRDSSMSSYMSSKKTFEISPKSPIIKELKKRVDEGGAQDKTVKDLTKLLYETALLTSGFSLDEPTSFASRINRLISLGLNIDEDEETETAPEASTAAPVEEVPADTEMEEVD

Kd: 11.6 µM
stoichiometry N: 1.25 FKBP51-Δ7He per Hsp90
B1: FKBP51-Δ7He (lacking residues 401–457 of the extended 7th helix of the TPR domain) (domain or fragment, UniProt Q13451 1-400, looked up)
chain: MTTDEGAKNNEESPTATVAEQGEDITSKKDRGVLKIVKRVGNGEETPMIGDKVYVHYKGKLSNGKKFDSSHDRNEPFVFSLGKGQVIKAWDIGVATMKKGEICHLLCKPEYAYGSAGSLPKIPSNATLFFEIELLDFKGEDLFEDGGIIRRTKRKGEGYSNPNEGATVEIHLEGRCGGRMFDCRDVAFTVGEGEDHDIPIGIDKALEKMQREEQCILYLGPRYGFGEAGKPKFGIEPNAELIYEVTLKSFEKAKESWEMDTKEKLEQAAIVKEKGTVYFKGGKYMQAVIQYGKIVSWLEMEYGLSEKESKASESFLLAAFLNLAMCYLKLREYTKAVECCDKALGLDSANEKGLYRRGEAQLLMNEFESAKGDFEKVLEVNPQNKAARLQISMCQKKAKE
notes: FKBP51 lacking residues 401–457 (the helical extension of the 7th helix of the TPR domain), that is, ending at residue 400; also called FKBP51-Δ7He mutant; FKBP51 mutant lacking the helical extension; source: gift of constructs from D. Southworth
